US20060241051A1 (Takeda / Millennium, published 2006)
Like-named read-outs stand apart in the source and are kept apart here. Numbered stars: 1 amine (or outer) side, 2 acyl side, 3 side chain; on linkers, the order of the positions; unused ones are H or OH. Square brackets hold non-standard residues; d marks the D form. Ends that are not written are not given here. * marks the point of attachment. Ala(2-Qui) = 2-quinolylalanine, O=C([C@H](Cc1ccc2ccccc2n1)N[*:1])[*:2]; Phe(4-F) = N[C@@H](Cc1ccc(F)cc1)C(=O)O; Arg(Me) = CNC(=N)NCCC[C@H](N)C(=O)O; Fmoc = O=C(OCC1c2ccccc2-c2ccccc21)*; 4Pal = N[C@@H](Cc1ccncc1)C(=O)O; d3Pal = N[C@H](Cc1cccnc1)C(=O)O; d4Pal = N[C@H](Cc1ccncc1)C(=O)O; Cha = N[C@@H](CC1CCCCC1)C(=O)O; Orn = NCCC[C@H](N)C(=O)O; azaGly = NNC(=O)O

How the values were obtained:
[1] = molecular target: T1, human OT7T175 (metastin receptor) (human, UniProt Q969F8 1-398); test: cell-based or functional assay
T1 sequence (Q969F8 whole entry L364H): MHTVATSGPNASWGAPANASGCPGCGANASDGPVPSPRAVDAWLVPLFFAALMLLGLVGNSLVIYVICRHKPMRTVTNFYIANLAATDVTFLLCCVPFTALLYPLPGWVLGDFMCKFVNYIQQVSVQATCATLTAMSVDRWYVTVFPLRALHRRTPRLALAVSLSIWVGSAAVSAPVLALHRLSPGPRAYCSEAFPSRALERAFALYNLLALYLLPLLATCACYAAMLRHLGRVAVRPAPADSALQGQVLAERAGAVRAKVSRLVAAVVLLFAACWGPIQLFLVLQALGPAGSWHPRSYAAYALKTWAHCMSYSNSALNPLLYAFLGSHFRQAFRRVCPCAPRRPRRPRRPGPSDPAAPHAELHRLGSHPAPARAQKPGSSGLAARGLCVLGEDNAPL

[2] = molecular target: T1, human OT7T175 (metastin receptor); test: FMAT competition with Cy-5-labeled metastin (40-54), hOT7T175-expressed CHO cells
[3] = molecular target: T1, human OT7T175 (metastin receptor); test: cell-based or functional assay; remark: listed apart in the source
[4] = molecular target: human OT7T175 (metastin receptor) (human) (UniProt Q969F8); test: cell-based or functional assay
Sequence of human OT7T175 (metastin receptor) (human) (Q969F8 whole entry L364H): as above

Row | Binder | intracellular Ca ion level-increasing activity (FLIPR) [1] | IC50 [2] [nM] | intracellular Ca ion level-increasing activity (FLIPR) [3] | intracellular Ca ion level-increasing activity (FLIPR) (specific activity to metastin (1-54)) [4]
1 | YNWNSFGLXF (Har(Me)9; C-terminal amide) [Compound No. 312: [Har(Me)9]MS10] | 3 specific activity to metastin (1-54) | 100 |  | 
2 | [d3Pal][dY][Cha]NSF[azaGly]L[Arg(Me)]F-NH2 (N-terminus assumed; SMILES CNC(=N)NCCC[C@H](NC(=O)[C@H](CC(C)C)NC(=O)NNC(=O)[C@H](Cc1ccccc1)NC(=O)[C@H](CO)NC(=O)[C@H](CC(N)=O)NC(=O)[C@H](CC1CCCCC1)NC(=O)[C@@H](Cc1ccc(O)cc1)NC(=O)[C@H](N)Cc1cccnc1)C(=O)N[C@@H](Cc1ccccc1)C(N)=O) [Compound No. 291: [D-Pya(3)1,D-Tyr2,Cha3,AzaGly7,Arg(Me)9]MS10] | 2 specific activity to metastin (1-54) | 0.41 |  | 
3 | YNWNSFGLXF (Nar(Me)9; C-terminal amide) [Compound No. 311: [Nar(Me)9]MS10] | 1 specific activity to metastin (1-54) | 470 |  | 
4 | [d4Pal][dN][Cha]NSF[azaGly]L[Arg(Me)]F-NH2 (N-terminus assumed; SMILES CNC(=N)NCCC[C@H](NC(=O)[C@H](CC(C)C)NC(=O)NNC(=O)[C@H](Cc1ccccc1)NC(=O)[C@H](CO)NC(=O)[C@H](CC(N)=O)NC(=O)[C@H](CC1CCCCC1)NC(=O)[C@@H](CC(N)=O)NC(=O)[C@H](N)Cc1ccncc1)C(=O)N[C@@H](Cc1ccccc1)C(N)=O) [Compound No. 306: [D-Pya(4)1,D-Asn2,Cha3,AzaGly7,Arg(Me)9]MS10] | 2 specific activity to metastin (1-54) | 4.4 |  | 
5 | Fmoc-NSFGL[Arg(Me)]F-NH2 [Compound No. 144: des(1-3)-Fmoc-[Arg(Me)9]MS10] |  |  | 1 specific activity to metastin (1-54) | 
6 | [dY]NWNSFGL[Arg(Me)]F-NH2 (also: Phe6-Gly7 thioamide (CSNH), also called [6y7,CSNH,D-Tyr1,Arg(Me)9]MS10) [Compound No. 296: [6Ψ7,CSNH,D-Tyr1,Arg(Me)9]MS10] | 3 specific activity to metastin (1-54) | 14 |  | 
7 | [dY]N[d4Pal]NSF[azaGly]L[Arg(Me)]F-NH2 [Compound No. 302: [D-Tyr1,D-Pya(4) 3,AzaGly7,Arg(Me)9]MS10] | 2 specific activity to metastin (1-54) | 7.7 |  | 
8 | YNWNSFGLXF (Nar9; C-terminal amide) [Compound No. 310: [Nar9]MS10] | 3 specific activity to metastin (1-54) | 310 |  | 
9 | [dY]NWNSFGL[Arg(Me)]F-NH2 (also: Phe6-Gly7 bond replaced by NHCO (retro-inverso)) [Compound No. 319: [6Ψ7,NHCO,D-Tyr1,Arg(Me)9]MS10] | 3 specific activity to metastin (1-54) |  |  | 
10 | [dY]N[Ala(2-Qui)]NSF[azaGly]L[Arg(Me)]F-NH2 (N-terminus assumed; SMILES CNC(=N)NCCC[C@H](NC(=O)[C@H](CC(C)C)NC(=O)NNC(=O)[C@H](Cc1ccccc1)NC(=O)[C@H](CO)NC(=O)[C@H](CC(N)=O)NC(=O)[C@H](Cc1ccc2ccccc2n1)NC(=O)[C@H](CC(N)=O)NC(=O)[C@H](N)Cc1ccc(O)cc1)C(=O)N[C@@H](Cc1ccccc1)C(N)=O) [Compound No. 301: [D-Tyr1,Ala(2-Qui) 3,AzaGly7,Arg(Me)9]MS10] | 1 specific activity to metastin (1-54) | 15 |  | 
11 | Y[dN][4Pal]NSF[azaGly]L[Arg(Me)]F-NH2 [Compound No. 304: [D-Asn2,Pya(4) 3,AzaGly7,Arg(Me)9]MS10] | 3 specific activity to metastin (1-54) | 5 |  | 
12 | YNWNSFGL[Orn]F-NH2 (N-terminus assumed; SMILES CC(C)C[C@H](NC(=O)CNC(=O)[C@H](Cc1ccccc1)NC(=O)[C@H](CO)NC(=O)[C@H](CC(N)=O)NC(=O)[C@H](Cc1c[nH]c2ccccc12)NC(=O)[C@H](CC(N)=O)NC(=O)[C@@H](N)Cc1ccc(O)cc1)C(=O)N[C@@H](CCCN)C(=O)N[C@@H](Cc1ccccc1)C(N)=O) [Compound No. 314: [Orn9]MS10] | 1 specific activity to metastin (1-54) | 470 |  | 
13 | [dY][dN][4Pal]NSF[azaGly]L[Arg(Me)][Phe(4-F)]-NH2 (N-terminus assumed; SMILES CNC(=N)NCCC[C@H](NC(=O)[C@H](CC(C)C)NC(=O)NNC(=O)[C@H](Cc1ccccc1)NC(=O)[C@H](CO)NC(=O)[C@H](CC(N)=O)NC(=O)[C@H](Cc1ccncc1)NC(=O)[C@@H](CC(N)=O)NC(=O)[C@H](N)Cc1ccc(O)cc1)C(=O)N[C@@H](Cc1ccc(F)cc1)C(N)=O) [Compound No. 317: [D-Tyr1,D-Asn2,Pya(4) 3,AzaGly7,Arg(Me)9,Phe(4F)10]MS10] | 1 specific activity to metastin (1-54) | 2.1 |  | 
14 | [dY]NWQSFGL[Arg(Me)]F-NH2 (N-terminus assumed; SMILES CNC(=N)NCCC[C@H](NC(=O)[C@H](CC(C)C)NC(=O)CNC(=O)[C@H](Cc1ccccc1)NC(=O)[C@H](CO)NC(=O)[C@H](CCC(N)=O)NC(=O)[C@H](Cc1c[nH]c2ccccc12)NC(=O)[C@H](CC(N)=O)NC(=O)[C@H](N)Cc1ccc(O)cc1)C(=O)N[C@@H](Cc1ccccc1)C(N)=O) [Compound No. 209: [D-Tyr1,Gln4,Arg(Me)9]MS10] |  |  |  | 0.5
15 | YNWNSFGLRW-NH2 [Compound No. 134: [Trp10]MS10] |  | 110 | 30 specific activity to metastin (1-54) | 
16 | [dY][dN]WNTF[azaGly]L[Arg(Me)]F-NH2 [Compound No. 298: [D-Tyr1,D-Asn2,Thr5,AzaGly7,Arg(Me)9]MS10] | 5 specific activity to metastin (1-54) | 0.25 |  | 
17 | [dY]NANSFGL[Arg(Me)]F-NH2 (N-terminus assumed; SMILES CNC(=N)NCCC[C@H](NC(=O)[C@H](CC(C)C)NC(=O)CNC(=O)[C@H](Cc1ccccc1)NC(=O)[C@H](CO)NC(=O)[C@H](CC(N)=O)NC(=O)[C@H](C)NC(=O)[C@H](CC(N)=O)NC(=O)[C@H](N)Cc1ccc(O)cc1)C(=O)N[C@@H](Cc1ccccc1)C(N)=O) [Compound No. 169: [D-Tyr1,Ala3,Arg(Me)9]MS10] |  | 160 | 2 specific activity to metastin (1-54) | 
18 | [dY][dN]TNSF[azaGly]L[Arg(Me)][Phe(4-F)]-NH2 [Compound No. 316: [D-Tyr1,D-Asn2,Thr3,AzaGly7,Arg(Me)9,Phe(4F)10]MS10] | 1 specific activity to metastin (1-54) | 26 |  | 
19 | [dY]NWNTF[azaGly]L[Arg(Me)]F-NH2 [Compound No. 297: [D-Tyr1,Thr5,AzaGly7,Arg(Me)9]MS10] | 1 specific activity to metastin (1-54) | 0.93 |  | 
20 | {4‑Imidazoleacetyl}-NSF[azaGly]L[Arg(Me)]F-NH2 [Compound No. 323: des(1-3)-4-Imidazoleacetyl-[AzaGly7,Arg(Me)9]MS10] | 1 specific activity to metastin (1-54) | 280 |  | 
